Like-named read-outs stand apart in the source and are kept apart here. Values belong to the binder of their own block, whether it stands above or below them. Square brackets hold non-standard residues; d marks the D form. Ends that are not written are not given here. Nle = CCCC[C@H](N)C(=O)O
Experiments:
[1] = biological target: T1, melanocortin-1 receptor (MC1-R) of B-16 mouse melanoma cells (mouse, UniProt Q01727 1-315); test: 125I-NDP-α-MSH competition, B-16 membranes
T1 construct: whole, on cells; membranes prepared from the cells were used; also called Melanocortin Receptor 1
T1 sequence (Q01727 whole entry): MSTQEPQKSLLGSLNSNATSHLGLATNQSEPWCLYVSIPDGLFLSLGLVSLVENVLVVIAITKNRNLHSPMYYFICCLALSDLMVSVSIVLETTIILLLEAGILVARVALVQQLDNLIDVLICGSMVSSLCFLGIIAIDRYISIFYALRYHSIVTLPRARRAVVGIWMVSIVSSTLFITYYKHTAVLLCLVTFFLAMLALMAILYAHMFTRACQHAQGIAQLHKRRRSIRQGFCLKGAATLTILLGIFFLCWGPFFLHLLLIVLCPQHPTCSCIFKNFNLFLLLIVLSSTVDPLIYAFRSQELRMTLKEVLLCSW
Description: (§1) The competitive inhibition binding assay was conducted using membranes prepared from hMC3-R, hMC4-R, hMC5-R, and B-16 mouse melanoma cells (containing MC1-R) using 0.4 nM ¹²⁵I-NDP-alpha-MSH (New England Nuclear, Boston, Mass., USA) in 50 mM HEPES buffer containing 1 mM MgCl₂, 2 mM CaCl₂, and 5 mM KCl, at pH 7.2. […] Incubation was for 90 minutes at room temperature, after which the assay mixture was filtered and the membranes washed three times with ice cold buffer. The filter was dried and counted in a gamma counter for remaining radioactivity bound to the membranes. 100% specific binding was defined as the difference in radioactivity (cpm) bound to cell membranes in the absence and presence of 1 μM α-MSH. […] Each assay was conducted in triplicate and the actual mean valves are described.
(§2) The methods and assays set forth in Example 1 were followed.

[2] = biological target: T2, human melanocortin-3 receptor (hMC3-R) (human, UniProt P41968 1-323); test: 125I-NDP-α-MSH competition, hMC3-R membranes
T2 construct: whole, on cells; membranes prepared from hMC3-R cells were used; also called Melanocortin Receptor 3
T2 sequence (P41968 whole entry): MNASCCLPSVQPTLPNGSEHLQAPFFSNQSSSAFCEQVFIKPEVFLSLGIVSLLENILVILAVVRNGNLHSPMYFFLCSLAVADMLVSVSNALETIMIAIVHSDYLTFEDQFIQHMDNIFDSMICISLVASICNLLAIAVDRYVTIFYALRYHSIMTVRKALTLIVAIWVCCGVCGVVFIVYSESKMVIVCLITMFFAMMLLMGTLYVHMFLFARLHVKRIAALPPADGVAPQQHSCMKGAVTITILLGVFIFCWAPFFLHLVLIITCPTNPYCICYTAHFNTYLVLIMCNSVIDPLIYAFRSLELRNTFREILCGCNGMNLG
Description: as §1, §2

[3] = biological target: T3, human melanocortin-5 receptor (hMC5-R) (human, UniProt P33032 1-325); test: 125I-NDP-α-MSH competition, hMC5-R membranes
T3 construct: whole, on cells; membranes prepared from hMC5-R cells were used; also called Melanocortin Receptor 5
T3 sequence (P33032 whole entry): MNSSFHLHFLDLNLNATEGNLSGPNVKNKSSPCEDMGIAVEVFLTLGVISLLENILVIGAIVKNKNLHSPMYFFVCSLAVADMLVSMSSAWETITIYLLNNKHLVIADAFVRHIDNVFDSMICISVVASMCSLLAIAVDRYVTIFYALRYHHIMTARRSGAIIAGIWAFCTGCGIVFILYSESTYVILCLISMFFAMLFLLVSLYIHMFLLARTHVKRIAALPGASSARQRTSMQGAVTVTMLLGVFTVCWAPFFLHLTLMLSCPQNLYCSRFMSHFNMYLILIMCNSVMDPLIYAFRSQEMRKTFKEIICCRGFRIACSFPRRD
Description: as §1, §2

[4] = biological target: T4, human melanocortin-4 receptor (hMC4-R) (human, UniProt P32245 1-332); test: 125I-NDP-α-MSH competition, hMC4-R membranes
T4 construct: whole, on cells; membranes prepared from hMC4-R cells were used; also called Melanocortin Receptor 4
T4 sequence (P32245 whole entry): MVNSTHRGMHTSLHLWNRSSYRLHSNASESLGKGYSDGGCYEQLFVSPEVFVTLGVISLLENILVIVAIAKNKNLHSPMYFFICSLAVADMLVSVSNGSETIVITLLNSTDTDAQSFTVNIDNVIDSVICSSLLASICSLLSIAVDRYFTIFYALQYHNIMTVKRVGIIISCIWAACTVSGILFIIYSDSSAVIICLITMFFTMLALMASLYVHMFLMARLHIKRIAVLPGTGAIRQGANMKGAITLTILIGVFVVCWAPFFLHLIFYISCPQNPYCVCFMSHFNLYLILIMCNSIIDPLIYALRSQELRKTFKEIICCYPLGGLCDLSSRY
Description: as §1, §2

[5] = biological target: T1, melanocortin-1 receptor (MC1-R) of B-16 …; test: 125I-NDP-α-MSH competition, B-16 membranes; remark: listed apart in the source
Description: as §1

[6] = biological target: T2, human melanocortin-3 receptor (hMC3-R); test: 125I-NDP-α-MSH competition, hMC3-R membranes; remark: listed apart in the source
Description: as §1

[7] = biological target: T4, human melanocortin-4 receptor (hMC4-R); test: 125I-NDP-α-MSH competition, hMC4-R membranes; remark: listed apart in the source
Description: as §1

Binder: Ac-SYS[Nle]EHFRWG[dC]KPV-NH2 (also: oxorhenium(V) N3S1 chelate at D-Cys11) [metallopeptide 2-4]
% Inhibition at 1 µM [1]: 91% | % Inhibition at 1 µM [2]: 27% | % Inhibition at 1 µM [3]: 21% | % Inhibition at 1 µM [4]: 40%

Binder: Ac-SYS[Nle]EHFR[dC]WGKPV-NH2 (also: oxorhenium(V) N3S1 chelate at D-Cys9) [metallopeptide 2-6]
% Inhibition at 1 µM [1]: 46% | % Inhibition at 1 µM [2]: 2% | % Inhibition at 1 µM [3]: 6% | % Inhibition at 1 µM [4]: 6%

Binder: YVXGHFRWDRFC (not fully specified; Nle 3; C-terminal amide; Re complexed at Cys 12) [metallopeptide 4-1]
% Inhibition at 1 µM [1]: 56% | % Inhibition at 1 µM [2]: 69% | % Inhibition at 1 µM [3]: 41% | % Inhibition at 1 µM [4]: 36%

B3: metallopeptide 2-1 (peptide)
peptide: SYSXEHFRWGKGVC
modifications: N-terminal acetyl; Nle 4 (X in letters); D-Cys 14; C-terminal amide; Re complexed at D-Cys 14
% Inhibition at 1 µM [1]: 97% | % Inhibition at 1 µM [2]: 72% | % Inhibition at 1 µM [3]: 53% | % Inhibition at 1 µM [4]: 46%

Binder: Ac-SYS[Nle]EHFRW[dC]GKPV-NH2 (also: oxorhenium(V) N3S1 chelate at D-Cys10) [metallopeptide 2-5]
% Inhibition at 1 µM [1]: 43% | % Inhibition at 1 µM [2]: 0% | % Inhibition at 1 µM [3]: 0% | % Inhibition at 1 µM [4]: 4%

Binder: Ac-SY[dC]S[Nle]EHFRWGKPV-NH2 (also: oxorhenium(V) N3S1 chelate at D-Cys3) [metallopeptide 2-12]
% Inhibition at 1 µM [1]: 97% | % Inhibition at 1 µM [2]: 21% | % Inhibition at 1 µM [3]: 17% | % Inhibition at 1 µM [4]: 47%

Binder: Ac-SYS[dC][Nle]EHFRWGKPV-NH2 (also: oxorhenium(V) N3S1 chelate at D-Cys4) [metallopeptide 2-11]
% Inhibition at 1 µM [1]: 95% | % Inhibition at 1 µM [3]: 0% | % Inhibition at 1 µM [4]: 37%

Binder: Ac-SYS[Nle][dC]EHFRWGKPV-NH2 (also: oxorhenium(V) N3S1 chelate at D-Cys5) [metallopeptide 2-10]
% Inhibition at 1 µM [1]: 65% | % Inhibition at 1 µM [2]: 0% | % Inhibition at 1 µM [3]: 0% | % Inhibition at 1 µM [4]: 18%

Binder: YVXGHFRWDRF (Nle 3; C-terminal amide, not complexed to Re) [[Nle3]-γ-MSH parent polypeptide Tyr-Val-Nle-Gly-His-Phe-Arg-Trp-Asp-Arg-Phe-NH2]
% Inhibition at 1 µM [1]: 83% | % Inhibition at 1 µM [2]: 85% | % Inhibition at 1 µM [3]: 43% | % Inhibition at 1 µM [4]: 58%

Binder: Ac-SYS[Nle]EHFRWGCKPV-NH2 (also: oxorhenium(V) N3S1 chelate at Cys11) [metallopeptide 1-4]
% Inhibition at 1 µM [6]: 0% | % Inhibition at 1 µM [5]: 72% | % Inhibition at 1 µM [7]: 0%

Binder: Ac-SYS[Nle]EHFRWGKG[dC]V-NH2 (also: oxorhenium(V) N3S1 chelate at D-Cys13) [metallopeptide 2-2]
% Inhibition at 1 µM [1]: 93% | % Inhibition at 1 µM [2]: 26% | % Inhibition at 1 µM [3]: 32% | % Inhibition at 1 µM [4]: 28%

Binder: Ac-SYS[Nle]EHF[dC]RWGKPV-NH2 (also: oxorhenium(V) N3S1 chelate at D-Cys8) [metallopeptide 2-7]
% Inhibition at 1 µM [1]: 54% | % Inhibition at 1 µM [2]: 0% | % Inhibition at 1 µM [3]: 0% | % Inhibition at 1 µM [4]: 6%

B10: metallopeptide 4-2 (peptide)
peptide: YV[Nle]GHFRWDRCF-NH2
modifications: also: oxorhenium(V) N3S1 chelate: C11 SG + backbone N of D9, R10, C11, bridge at 11 via Re(V)=O, other end not in the chain
% Inhibition at 1 µM [1]: 75% | % Inhibition at 1 µM [2]: 49% | % Inhibition at 1 µM [3]: 51% | % Inhibition at 1 µM [4]: 23%

Binder: Ac-SYS[Nle]EH[dC]FRWGKPV-NH2 (also: oxorhenium(V) N3S1 chelate at D-Cys 7) [metallopeptide 2-8]
% Inhibition at 1 µM [1]: 69% | % Inhibition at 1 µM [2]: 0% | % Inhibition at 1 µM [3]: 29% | % Inhibition at 1 µM [4]: 25%

B11: metallopeptide 4-3 (peptide)
peptide: YV[Nle]GHFRWDCRF-NH2
modifications: also: oxorhenium(V) N3S1 chelate: C10 SG + backbone N of W8, D9, C10, bridge at 10 via Re(V)=O, other end not in the chain
% Inhibition at 1 µM [1]: 44% | % Inhibition at 1 µM [2]: 18% | % Inhibition at 1 µM [3]: 65% | % Inhibition at 1 µM [4]: 23%

Binder: Ac-SYS[Nle]EHCFRWGKPV-NH2 (also: oxorhenium(V) N3S1 chelate at Cys7) [metallopeptide 1-8]
% Inhibition at 1 µM [6]: 0% | % Inhibition at 1 µM [5]: 42% | % Inhibition at 1 µM [7]: 0%

Binder: Ac-SYS[Nle]EHFRWGK[dC]PV-NH2 (also: oxorhenium(V) N3S1 chelate at D-Cys12) [metallopeptide 2-3]
% Inhibition at 1 µM [1]: 91% | % Inhibition at 1 µM [2]: 41% | % Inhibition at 1 µM [3]: 38% | % Inhibition at 1 µM [4]: 25%

Binder: Ac-SYS[Nle]E[dC]HFRWGKPV-NH2 (also: oxorhenium(V) N3S1 chelate at D-Cys 6) [metallopeptide 2-9]
% Inhibition at 1 µM [1]: 92% | % Inhibition at 1 µM [2]: 13% | % Inhibition at 1 µM [3]: 2% | % Inhibition at 1 µM [4]: 35%

Continued, values first:

% Inhibition at 1 µM [3]: 24%
B1: metallopeptide 4-6 (peptide)
peptide: YV[Nle]GHFCRWDRF-NH2
modifications: also: oxorhenium(V) N3S1 chelate: C7 SG + backbone N of H5, F6, C7, bridge at 7 via Re(V)=O, other end not in the chain

% Inhibition at 1 µM [1]: 89% | % Inhibition at 1 µM [2]: 87% | % Inhibition at 1 µM [3]: 68% | % Inhibition at 1 µM [4]: 74%
B2: metallopeptide 4-5 (peptide)
peptide: YV[Nle]GHFRCWDRF-NH2
modifications: also: oxorhenium(V) N3S1 chelate: C8 SG + backbone N of F6, R7, C8, bridge at 8 via Re(V)=O, other end not in the chain

% Inhibition at 1 µM [2]: 19% | % Inhibition at 1 µM [3]: 43%
B4: metallopeptide 4-9 (peptide)
peptide: YV[Nle]CGHFRWDRF-NH2
modifications: also: oxorhenium(V) N3S1 chelate: C4 SG + backbone N of V2, X3, C4, bridge at 4 via Re(V)=O, other end not in the chain

% Inhibition at 1 µM [2]: 17% | % Inhibition at 1 µM [3]: 15%
B5: metallopeptide 4-7 (peptide)
peptide: YV[Nle]GHCFRWDRF-NH2
modifications: also: oxorhenium(V) N3S1 chelate: C6 SG + backbone N of G4, H5, C6, bridge at 6 via Re(V)=O, other end not in the chain

% Inhibition at 1 µM [1]: 99% | % Inhibition at 1 µM [5]: 99%
B6: α-MSH parent polypeptide Ac-Ser-Tyr-Ser-Met-Glu-His-Phe-Arg-Trp-Gly-Lys-Pro-Val-NH2 (peptide)
peptide: Ac-SYSMEHFRWGKPV-NH2
notes: not complexed to Re; also called α-MSH analog

% Inhibition at 1 µM [1]: 13% | % Inhibition at 1 µM [2]: 33% | % Inhibition at 1 µM [3]: 45%
B7: metallopeptide 4-8 (peptide)
peptide: YV[Nle]GCHFRWDRF-NH2
modifications: also: oxorhenium(V) N3S1 chelate: C5 SG + backbone N of X3, G4, C5, bridge at 5 via Re(V)=O, other end not in the chain

% Inhibition at 1 µM [1]: 52% | % Inhibition at 1 µM [2]: 20% | % Inhibition at 1 µM [3]: 47% | % Inhibition at 1 µM [4]: 39%
B8: metallopeptide 4-4 (peptide)
peptide: YV[Nle]GHFRWCDRF-NH2
modifications: also: oxorhenium(V) N3S1 chelate: C9 SG + backbone N of R7, W8, C9, bridge at 9 via Re(V)=O, other end not in the chain

% Inhibition at 1 µM [1]: 28% | % Inhibition at 1 µM [2]: 10% | % Inhibition at 1 µM [3]: 17%
B9: metallopeptide 4-10 (peptide)
peptide: YVC[Nle]GHFRWDRF-NH2
modifications: bridge (positions not given here); not fully specified (bridges); printed as Tyr-Val-Cys-Nle-Gly-His-Phe-Arg-Trp-Asp-Arg-Phe-NH2.; also: oxorhenium(V) N3S1 complex

Source: patent publication US20050282739A1 (PALATIN TECHNOLOGIES, published 2005)
